Data published in US11045456.

Assays:
[1] = biological target: nuclear factor-κB (NF-κB) p65 subunit, human, wild type (UniProt Q04206)
[2] = biological target: p65 phosphorylation-deficient mutant S276A (UniProt Q04206)
p65 mutant S536A = p65 mutant S536A (UniProt Q04206)
p65 mutant S536A, sequence (Q04206 whole entry S536A): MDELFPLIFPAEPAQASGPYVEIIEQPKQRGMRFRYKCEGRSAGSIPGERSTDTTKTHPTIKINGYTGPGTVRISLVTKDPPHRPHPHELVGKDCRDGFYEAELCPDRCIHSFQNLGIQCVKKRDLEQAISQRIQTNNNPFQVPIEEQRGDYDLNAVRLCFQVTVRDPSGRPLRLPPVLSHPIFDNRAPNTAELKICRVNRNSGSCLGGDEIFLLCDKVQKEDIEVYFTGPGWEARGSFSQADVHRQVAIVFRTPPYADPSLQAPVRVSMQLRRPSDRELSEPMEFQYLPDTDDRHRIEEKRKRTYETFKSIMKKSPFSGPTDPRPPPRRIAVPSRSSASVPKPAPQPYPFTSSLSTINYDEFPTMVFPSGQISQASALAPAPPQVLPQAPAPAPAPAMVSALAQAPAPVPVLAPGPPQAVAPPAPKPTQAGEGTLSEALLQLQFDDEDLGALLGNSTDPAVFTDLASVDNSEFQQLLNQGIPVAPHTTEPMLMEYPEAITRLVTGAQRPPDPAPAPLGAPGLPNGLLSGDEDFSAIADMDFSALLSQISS

nuclear factor-κB (NF-κB) p65 subunit, human, wild type, sequence (Q04206 whole entry): as the sequence (Q04206 whole entry S536A) above, with A536S counted along it
p65 phosphorylation-deficient mutant S276A, sequence (Q04206 whole entry S276A): as the sequence (Q04206 whole entry S536A) above, with S276A, A536S counted along it

Substance	NF-κB promoter activity [1]	phosphorylation of p65 (Phos-tag PAGE) [1]	NF-κB promoter activity [2]	intensity ratio of PKA-Cβ-induced phosphorylation (Phos-tag PAGE) (p65 mutant S536A)	intensity ratio of PKA-Cβ-induced phosphorylation (Phos-tag PAGE) [2]
PKA-Cβ1, human	Co-transfection with PKA-Cβ1 significantly enhanced the p65-induced NF-κB promoter activity	the overexpression of PKA-Cβ1, the major subtype of Cβ in BEAS-2B cells, induced the phosphorylation of p65, which was inhibited by H89	which was abrogated by co-expressing the S276A mutant of p65	–	–
protein kinase A catalytic subunit β (PKA-Cβ), human	–	–	–	The intensity ratio of PKA-Cβ-induced phosphorylation was decreased in S276A- and S536A-transfected cells compared to the wild-type p65-transfected cells	The intensity ratio of PKA-Cβ-induced phosphorylation was decreased in S276A- and S536A-transfected cells compared to the wild-type p65-transfected cells
